Data as given in patent publication US20260242419A1, “A CYCLIC PEPTIDE FOR TRAPPING INTERLEUKIN-1 BETA” (Merck Sharp & Dohme LLC, priority 2023, published 2026).
Starred links: 1 amine or outer side, 2 acyl side, 3 side chain; linkers in the order of their positions; H or OH if unused. Non-standard residues stand in square brackets, D forms with d. Primed or numbered codes have the meaning given here. F4bcpA = 3-[4-[(2S)-2-amino-2-carboxy-ethyl]phenyl]bicyclo[1.1.1]pentane-1-carboxylic acid, O=C([C@H](Cc1ccc(C23CC(C(=O)[*:3])(C2)C3)cc1)N[*:1])[*:2]; Trp(4-Cl)(βS-Me) = C[C@@H](c1c[nH]c2cccc(Cl)c12)[C@H](N)C(=O)O; Ala(piperidin-4-yl) = O=C([C@H](CC1CCN([*:3])CC1)N[*:1])[*:2]; Trp(βS-Me,4-F) = C[C@@H](c1c[nH]c2cccc(F)c12)[C@H](N)C(=O)O; Bip(4'-COOH) = N[C@@H](Cc1ccc(-c2ccc(C(=O)O)cc2)cc1)C(=O)O; Ala(1-bicyclo(1.1.1)pentyl) = N[C@@H](CC12CC(C1)C2)C(=O)O; dPro(4R-Bzl(4-F)) = O=C(O)[C@H]1C[C@@H](Cc2ccc(F)cc2)CN1; Ala(morpholin-4-yl) = N[C@@H](CN1CCOCC1)C(=O)O; Ala(piperazin-1-yl) = N[C@@H](CN1CCNCC1)C(=O)O; Ala(pyrimidin-5-yl) = N[C@@H](Cc1cncnc1)C(=O)O; Phe(4-COOH) = N[C@@H](Cc1ccc(C(=O)O)cc1)C(=O)O; Pro(cis-4-F) = O=C(O)[C@@H]1C[C@H](F)CN1; cisHyp = O=C(O)[C@@H]1C[C@H](O)CN1; d(αMeD) = C[C@@](N)(CC(=O)O)C(=O)O; aIle = CC[C@@H](C)[C@H](N)C(=O)O; 4Pal = N[C@@H](Cc1ccncc1)C(=O)O; aThr = C[C@H](O)[C@H](N)C(=O)O; αMeK = C[C@](N)(CCCCN)C(=O)O; dαMeDab′ = not defined here; hSer = N[C@@H](CCO)C(=O)O; Dab = NCC[C@H](N)C(=O)O; Aib = CC(C)(N)C(=O)O; Sar = CNCC(=O)O

B1: SEQ ID NO: 127 (peptide)
peptide: cyclo([Bip(4'-COOH)][4Pal][Phe(4-COOH)]G[cisHyp][Trp(βS-Me,4-F)][Aib]SW[Aib][Ala(pyrimidin-5-yl)]Q[Dab]G[dPro(4R-Bzl(4-F))])
modifications: ring closure inferred; not fully specified (bridges); printed as Bip4CO2H-4Pal-Phe4COOH-G-Proc4OH-SbMeW4F-Aib-S-W-Aib-PyrimAla-Q-Dab-G-dProc4Bn4F
B2: SEQ ID NO: 128 (peptide)
peptide: cyclo([Bip(4'-COOH)][4Pal][Phe(4-COOH)]G[Pro(cis-4-F)][Trp(βS-Me,4-F)][Aib]SW[d(αMeD)][Ala(pyrimidin-5-yl)]Q[Dab]G[dPro(4R-Bzl(4-F))])
modifications: ring closure inferred; not fully specified (bridges); printed as Bip4CO2H-4Pal-Phe4COOH-G-Proc4F-SbMeW4F-Aib-S-W-daMeD-PyrimAla-Q-Dab-G-dProc4Bn4F
B3: SEQ ID NO: 129 (peptide)
peptide: cyclo([Bip(4'-COOH)][4Pal][Phe(4-COOH)]G[Pro(cis-4-F)][Trp(βS-Me,4-F)][αMeDab]SW[Aib][Ala(pyrimidin-5-yl)]Q[Dab]G[dPro(4R-Bzl(4-F))])
modifications: ring closure inferred; not fully specified (bridges); printed as Bip4CO2H-4Pal-Phe4COOH-G-Proc4F-SbMeW4F-aMeDab-S-W-Aib-PyrimAla-Q-Dab-G-dProc4Bn4F
B4: SEQ ID NO: 130 (peptide)
peptide: cyclo([Bip(4'-COOH)][4Pal][Phe(4-COOH)]G[Pro(cis-4-F)][Trp(βS-Me,4-F)][Aib]SW[αMeDab][Ala(pyrimidin-5-yl)]Q[Dab]G[dPro(4R-Bzl(4-F))])
modifications: ring closure inferred; not fully specified (bridges); printed as Bip4CO2H-4Pal-Phe4COOH-G-Proc4F-SbMeW4F-Aib-S-W-aMeDab-PyrimAla-Q-Dab-G-dProc4Bn4F
B5: SEQ ID NO: 131 (peptide)
peptide: cyclo([Bip(4'-COOH)][4Pal][Phe(4-COOH)]G[Pro(cis-4-F)][Trp(βS-Me,4-F)][dαMeDab′]SW[Aib][Ala(pyrimidin-5-yl)]Q[Dab]G[dPro(4R-Bzl(4-F))])
modifications: ring closure inferred; not fully specified (bridges); printed as Bip4CO2H-4Pal-Phe4COOH-G-Proc4F-SbMeW4F-daMeDab-S-W-Aib-PyrimAla-Q-Dab-G-dProc4Bn4F
B6: SEQ ID NO: 132 (peptide)
peptide: cyclo([Bip(4'-COOH)][4Pal][Phe(4-COOH)]G[Pro(cis-4-F)][Trp(βS-Me,4-F)][Aib]EW[αMeK][Ala(pyrimidin-5-yl)]Q[Dab][Sar][dPro(4R-Bzl(4-F))])
modifications: ring closure inferred; not fully specified (bridges); printed as Bip4CO2H-4Pal-Phe4COOH-G-Proc4F-SbMeW4F-Aib-E-W-aMeK-PyrimAla-Q-Dab-Sar-dProc4Bn4F
B7: SEQ ID NO: 133 (peptide)
peptide: cyclo([Bip(4'-COOH)][4Pal][Phe(4-COOH)]G[Pro(cis-4-F)][Trp(βS-Me,4-F)][Aib][hSer]W[αMeK][Ala(pyrimidin-5-yl)]Q[Dab]G[dPro(4R-Bzl(4-F))])
modifications: ring closure inferred; not fully specified (bridges); printed as Bip4CO2H-4Pal-Phe4COOH-G-Proc4F-SbMeW4F-Aib-hS-W-aMeK-PyrimAla-Q-Dab-G-dProc4Bn4F
B8: SEQ ID NO: 134 (peptide)
peptide: cyclo([Bip(4'-COOH)][4Pal][Phe(4-COOH)]G[Pro(cis-4-F)][Trp(βS-Me,4-F)][Aib]AW[αMeK][Ala(pyrimidin-5-yl)]Q[Dab]G[dPro(4R-Bzl(4-F))])
modifications: ring closure inferred; not fully specified (bridges); printed as Bip4CO2H-4Pal-Phe4COOH-G-Proc4F-SbMeW4F-Aib-A-W-aMeK-PyrimAla-Q-Dab-G-dProc4Bn4F
B9: SEQ ID NO: 135 (peptide)
peptide: cyclo([Bip(4'-COOH)][4Pal][Phe(4-COOH)]G[Pro(cis-4-F)][Trp(βS-Me,4-F)][Aib]VW[αMeK][Ala(pyrimidin-5-yl)]Q[Dab]G[dPro(4R-Bzl(4-F))])
modifications: ring closure inferred; not fully specified (bridges); printed as Bip4CO2H-4Pal-Phe4COOH-G-Proc4F-SbMeW4F-Aib-V-W-aMeK-PyrimAla-Q-Dab-G-dProc4Bn4F
B10: SEQ ID NO: 136 (peptide)
peptide: cyclo([Bip(4'-COOH)][4Pal][Phe(4-COOH)]G[Pro(cis-4-F)][Trp(βS-Me,4-F)][Aib][aIle]W[αMeK][Ala(pyrimidin-5-yl)]Q[Dab]G[dPro(4R-Bzl(4-F))])
modifications: ring closure inferred; not fully specified (bridges); printed as Bip4CO2H-4Pal-Phe4COOH-G-Proc4F-SbMeW4F-Aib-alI-W-aMeK-PyrimAla-Q-Dab-G-dProc4Bn4F
B11: SEQ ID NO: 137 (peptide)
peptide: cyclo([Bip(4'-COOH)][4Pal][Phe(4-COOH)]G[Pro(cis-4-F)][Trp(βS-Me,4-F)][Aib]TW[αMeK][Ala(pyrimidin-5-yl)]Q[Dab]G[dPro(4R-Bzl(4-F))])
modifications: ring closure inferred; not fully specified (bridges); printed as Bip4CO2H-4Pal-Phe4COOH-G-Proc4F-SbMeW4F-Aib-T-W-aMeK-PyrimAla-Q-Dab-G-dProc4Bn4F
B12: SEQ ID NO: 138 (peptide)
peptide: cyclo([Bip(4'-COOH)][4Pal][Phe(4-COOH)]G[Pro(cis-4-F)][Trp(βS-Me,4-F)][Aib][aThr]W[αMeK][Ala(pyrimidin-5-yl)]Q[Dab]G[dPro(4R-Bzl(4-F))])
modifications: ring closure inferred; not fully specified (bridges); printed as Bip4CO2H-4Pal-Phe4COOH-G-Proc4F-SbMeW4F-Aib-alT-W-aMeK-PyrimAla-Q-Dab-G-dProc4Bn4F
B13: SEQ ID NO: 139 (peptide)
peptide: cyclo([Bip(4'-COOH)][4Pal][Phe(4-COOH)]G[Pro(cis-4-F)][Trp(4-Cl)(βS-Me)][Aib]SW[Aib][Ala(pyrimidin-5-yl)]Q[Dab]G[dPro(4R-Bzl(4-F))])
modifications: ring closure inferred; not fully specified (bridges); printed as Bip4CO2H-4Pal-Phe4COOH-G-Proc4F-SbMeW4Cl-Aib-S-W-Aib-PyrimAla-Q-Dab-G-dProc4Bn4F
B14: SEQ ID NO: 99 (peptide)
peptide: cyclo([F4bcpA][Ala(1-bicyclo(1.1.1)pentyl)][Phe(4-COOH)]G[Pro(cis-4-F)][Trp(βS-Me,4-F)][Aib]EW[Aib][Ala(pyrimidin-5-yl)]Q[Dab]G[dPro(4R-Bzl(4-F))])
SMILES: C[C@@H](c1c[nH]c2cccc(F)c12)[C@@H]1NC(=O)[C@@H]2C[C@H](F)CN2C(=O)CNC(=O)[C@H](Cc2ccc(C(=O)O)cc2)NC(=O)[C@H](CC23CC(C2)C3)NC(=O)[C@H](Cc2ccc(C34CC(C(=O)O)(C3)C4)cc2)NC(=O)[C@H]2C[C@@H](Cc3ccc(F)cc3)CN2C(=O)CNC(=O)[C@H](CCN)NC(=O)[C@H](CCC(N)=O)NC(=O)[C@H](Cc2cncnc2)NC(=O)C(C)(C)NC(=O)[C@H](Cc2c[nH]c3ccccc23)NC(=O)[C@H](CCC(=O)O)NC(=O)C(C)(C)NC1=O

target: Recombinant human IL-1β (BioLegend 579404) (human, UniProt P01584 117-269); experiment: cell-based or functional assay

Binder | MRC5 IC50 [nM]
cyclo([Bip(4'-COOH)][4Pal][Phe(4-COOH)]G[Pro(cis-4-F)][Trp(βS-Me,4-F)][Aib]EW[Aib][Ala(piperidin-4-yl)]QSG[dPro(4R-Bzl(4-F))]) (ring closure inferred) [SEQ ID NO: 121] | 0.029
cyclo([Bip(4'-COOH)][4Pal][Phe(4-COOH)]G[Pro(cis-4-F)][Trp(βS-Me,4-F)][Aib]EW[Aib][Ala(piperazin-1-yl)]QSG[dPro(4R-Bzl(4-F))]) (ring closure inferred) [SEQ ID NO: 122] | 0.019
cyclo([Bip(4'-COOH)][4Pal][Phe(4-COOH)]G[Pro(cis-4-F)][Trp(βS-Me,4-F)][Aib]EW[Aib][Ala(morpholin-4-yl)]Q[Dab]G[dPro(4R-Bzl(4-F))]) (ring closure inferred) [SEQ ID NO: 123] | 0.017
cyclo([Bip(4'-COOH)][4Pal][Phe(4-COOH)]G[Pro(cis-4-F)][Trp(βS-Me,4-F)][Aib]EW[Aib][Ala(morpholin-4-yl)]QSG[dPro(4R-Bzl(4-F))]) (ring closure inferred) [SEQ ID NO: 124] | 0.018
cyclo([Bip(4'-COOH)][4Pal][Phe(4-COOH)]G[Pro(cis-4-F)][Trp(βS-Me,4-F)][Aib]EW[Aib][Ala(morpholin-4-yl)]QSG[dPro(4R-Bzl(4-F))]) (ring closure inferred) [SEQ ID NO: 125] | 0.041
cyclo([Bip(4'-COOH)][4Pal][Phe(4-COOH)]G[Pro(cis-4-F)][Trp(βS-Me,4-F)][Aib]EW[Aib][Ala(morpholin-4-yl)]Q[Dab]G[dPro(4R-Bzl(4-F))]) (ring closure inferred) [SEQ ID NO: 126] | 0.022
B1 | 0.013
B2 | 0.009
B3 | 0.019
B4 | 0.039
B5 | 0.019
B6 | 0.015
B7 | 0.021
B8 | 0.021
B9 | 0.035
B10 | 0.027
B11 | 0.022
B12 | 0.021
B13 | 0.034

target: Recombinant human IL-1β (BioLegend 579404) (human, UniProt P01584 117-269); experiment: cell-based or functional assay; remark: another data set of the same source

Binder | MRC5 IC50 [nM]
B14 | 0.031
